B2: Human papillomavirus 11 E1 (other)
chain: MADDSGTENEGSGCTGWFMVEAIVEHTTGTQISEDEEEEVEDSGYDMVDFIDDRHITQNSVEAQALFNRQEADAHYATVQDLKRKYLGSPYVSPISNVANAVESEISPRLDAIKLTTQPKKVKRRLFETRELTDSGYGYSEVEAATQVEKHGDPENGGDGQERDTGRDIEGEGVEHREAEAVDDSTREHADTSGILELLKCKDIRSTLHGKFKDCFGLSFVDLIRPFKSDRTTCADWVVAGFGIHHSIADAFQKLIEPLSLYAHIQWLTNAWGMVLLVLIRFKVNKSRCTVARTLGTLLNIPENHMLIEPPKIQSGVRALYWFRTGISNASTVIGEAPEWITRQTVIEHSLADSQFKLTEMVQWAYDNDICEESEIAFEYAQRGDFDSNARAFLNSNMQAKYVKDCAIMCRHYKHAEMKKMSIKQWIKYRGTKVDSVGNWKPIVQFLRHQNIEFIPFLSKLKLWLHGTPKKNCIAIVGPPDTGKSCFCMSLIKFLGGTVISYVNSCSHFWLQPLTDAKVALLDDATQPCWTYMDTYMRNLLDGNPMSIDRKHRALTLIKCPPLLVTSNIDISKEEKYKYLHSRVTTFTFPNPFPFDRNGNAVYELSDANWKCFFERLSSSLDIEDSEDEEDGSNSQAFRCVPGSVVRTL
notes: also called HPV 11 E1; cbe_251663
B3: HPV 16 E1-E4 (other)
chain: MADPAAATKYPLLKLLGSTWPTTPPRPIPKPSPWAPKKHRRLSSDQDQSQTPETPATPLSCCTETQWTVLQSSLHLTAHTKDGLTVIVTLHP
notes: also called cbe_251059
B4: Human papillomavirus 11 E7 (other)
chain: MHGRLVTLKDIVLDLQPPDPVGLHCYEQLEDSSEDEVDKVDKQDAQPLTQHYQILTCCCGCDSNVRLVVECTDGDIRQLQDLLLGTLNIVCPICAPKP
notes: also called HPV 11 E7; cbe_250834

Legend:
[1] = molecular target: B2; test: Y2H; INT ID 51
[2] = molecular target: T1, DKFZP434I1735 protein (human, UniProt Q86XA9 451-2040); test: Y2H; INT ID 50
T1 construct: also called cbe_3643627
T1 sequence (Q86XA9 451-2040 V880M limits assumed): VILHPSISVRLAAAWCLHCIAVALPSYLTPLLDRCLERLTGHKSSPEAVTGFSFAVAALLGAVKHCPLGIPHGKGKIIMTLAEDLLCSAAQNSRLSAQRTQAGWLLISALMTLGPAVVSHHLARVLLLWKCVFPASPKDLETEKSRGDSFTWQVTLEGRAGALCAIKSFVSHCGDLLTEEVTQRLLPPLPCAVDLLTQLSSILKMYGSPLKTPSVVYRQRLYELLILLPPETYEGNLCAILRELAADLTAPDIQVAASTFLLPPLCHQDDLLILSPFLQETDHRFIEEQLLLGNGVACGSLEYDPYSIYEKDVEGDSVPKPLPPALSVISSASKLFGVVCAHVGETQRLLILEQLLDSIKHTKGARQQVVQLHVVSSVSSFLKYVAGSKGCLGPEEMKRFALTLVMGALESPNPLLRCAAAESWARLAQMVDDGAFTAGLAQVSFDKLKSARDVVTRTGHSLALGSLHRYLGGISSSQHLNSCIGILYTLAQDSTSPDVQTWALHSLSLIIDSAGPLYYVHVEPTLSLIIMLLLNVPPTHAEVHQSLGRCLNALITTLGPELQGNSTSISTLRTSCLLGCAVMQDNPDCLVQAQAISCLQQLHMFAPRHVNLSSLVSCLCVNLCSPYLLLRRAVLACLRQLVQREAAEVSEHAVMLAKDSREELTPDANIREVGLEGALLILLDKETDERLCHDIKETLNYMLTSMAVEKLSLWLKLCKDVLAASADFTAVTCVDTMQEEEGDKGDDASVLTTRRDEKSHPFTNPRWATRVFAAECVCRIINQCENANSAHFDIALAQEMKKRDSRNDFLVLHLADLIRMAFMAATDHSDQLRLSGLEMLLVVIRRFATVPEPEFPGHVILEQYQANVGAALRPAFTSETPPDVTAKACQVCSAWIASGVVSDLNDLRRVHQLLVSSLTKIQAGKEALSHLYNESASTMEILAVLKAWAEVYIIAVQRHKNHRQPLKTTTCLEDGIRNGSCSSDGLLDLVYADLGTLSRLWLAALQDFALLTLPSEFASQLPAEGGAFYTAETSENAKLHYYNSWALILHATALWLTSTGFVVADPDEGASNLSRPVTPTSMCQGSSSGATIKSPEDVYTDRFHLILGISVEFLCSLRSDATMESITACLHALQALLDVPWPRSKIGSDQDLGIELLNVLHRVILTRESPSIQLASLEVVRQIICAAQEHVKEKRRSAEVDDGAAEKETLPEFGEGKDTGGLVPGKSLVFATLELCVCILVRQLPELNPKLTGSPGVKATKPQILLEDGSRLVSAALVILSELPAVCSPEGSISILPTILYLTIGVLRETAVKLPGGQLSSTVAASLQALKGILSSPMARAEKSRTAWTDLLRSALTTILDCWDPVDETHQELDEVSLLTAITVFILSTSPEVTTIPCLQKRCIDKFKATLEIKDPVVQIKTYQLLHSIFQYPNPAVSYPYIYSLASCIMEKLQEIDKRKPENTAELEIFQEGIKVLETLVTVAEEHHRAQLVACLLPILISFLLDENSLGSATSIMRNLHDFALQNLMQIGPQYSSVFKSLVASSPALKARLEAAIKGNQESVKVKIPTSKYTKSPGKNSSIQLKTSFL

[3] = molecular target: T2, RABIF (human, UniProt P47224 1-123); test: Y2H; INT ID 139
T2 construct: also called cbe_3472582
T2 sequence: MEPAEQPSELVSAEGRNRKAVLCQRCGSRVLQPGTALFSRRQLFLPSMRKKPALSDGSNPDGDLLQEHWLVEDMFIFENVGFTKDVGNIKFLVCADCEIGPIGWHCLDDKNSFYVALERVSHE

[4] = molecular target: T3, PEST-containing nuclear protein (human, UniProt Q8WW12 2-178); test: Y2H; INT ID 140
T3 construct: also called pcnp; PCNP
T3 sequence: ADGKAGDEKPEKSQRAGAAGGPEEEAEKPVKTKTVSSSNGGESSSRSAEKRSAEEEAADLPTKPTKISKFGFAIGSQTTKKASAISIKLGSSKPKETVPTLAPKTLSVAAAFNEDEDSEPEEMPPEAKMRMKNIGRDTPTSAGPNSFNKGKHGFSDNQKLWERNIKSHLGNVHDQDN

[5] = molecular target: T4, PCDH1 (human, UniProt Q08174 58-1060); test: Y2H; INT ID 142
T4 construct: also called cbe_4269156
T4 sequence: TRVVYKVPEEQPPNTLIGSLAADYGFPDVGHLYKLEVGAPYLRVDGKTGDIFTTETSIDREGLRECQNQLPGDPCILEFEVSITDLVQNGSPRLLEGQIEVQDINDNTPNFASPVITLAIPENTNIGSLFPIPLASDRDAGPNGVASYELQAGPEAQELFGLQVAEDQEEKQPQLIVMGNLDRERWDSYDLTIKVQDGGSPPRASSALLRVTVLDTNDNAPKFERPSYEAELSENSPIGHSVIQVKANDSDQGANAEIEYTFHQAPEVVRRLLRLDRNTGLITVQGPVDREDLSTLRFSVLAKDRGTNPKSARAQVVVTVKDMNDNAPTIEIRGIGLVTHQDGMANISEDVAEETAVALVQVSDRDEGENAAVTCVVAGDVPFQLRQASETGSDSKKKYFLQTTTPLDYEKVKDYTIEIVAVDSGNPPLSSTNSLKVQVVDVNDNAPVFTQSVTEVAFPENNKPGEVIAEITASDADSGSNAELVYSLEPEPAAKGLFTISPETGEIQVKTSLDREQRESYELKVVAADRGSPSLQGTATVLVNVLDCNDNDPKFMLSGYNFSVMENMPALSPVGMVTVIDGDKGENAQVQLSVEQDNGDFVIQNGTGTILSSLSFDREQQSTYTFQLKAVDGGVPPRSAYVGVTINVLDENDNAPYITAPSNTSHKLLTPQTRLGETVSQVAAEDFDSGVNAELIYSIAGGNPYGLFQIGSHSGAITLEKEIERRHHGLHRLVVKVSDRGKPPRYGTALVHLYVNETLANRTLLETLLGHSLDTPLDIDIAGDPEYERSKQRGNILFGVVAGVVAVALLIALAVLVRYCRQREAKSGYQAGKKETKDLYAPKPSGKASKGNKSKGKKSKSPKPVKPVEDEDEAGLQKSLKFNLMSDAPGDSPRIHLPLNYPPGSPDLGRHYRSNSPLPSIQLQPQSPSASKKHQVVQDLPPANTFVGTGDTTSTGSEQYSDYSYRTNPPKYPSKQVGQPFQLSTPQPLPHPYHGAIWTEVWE

[6] = molecular target: T5, signal-induced proliferation-associated 1 like 1 (human, UniProt O43166 1-1804); test: Y2H; INT ID 37
T5 construct: also called KIAA0440; cbe_3056756
T5 sequence (O43166 whole entry): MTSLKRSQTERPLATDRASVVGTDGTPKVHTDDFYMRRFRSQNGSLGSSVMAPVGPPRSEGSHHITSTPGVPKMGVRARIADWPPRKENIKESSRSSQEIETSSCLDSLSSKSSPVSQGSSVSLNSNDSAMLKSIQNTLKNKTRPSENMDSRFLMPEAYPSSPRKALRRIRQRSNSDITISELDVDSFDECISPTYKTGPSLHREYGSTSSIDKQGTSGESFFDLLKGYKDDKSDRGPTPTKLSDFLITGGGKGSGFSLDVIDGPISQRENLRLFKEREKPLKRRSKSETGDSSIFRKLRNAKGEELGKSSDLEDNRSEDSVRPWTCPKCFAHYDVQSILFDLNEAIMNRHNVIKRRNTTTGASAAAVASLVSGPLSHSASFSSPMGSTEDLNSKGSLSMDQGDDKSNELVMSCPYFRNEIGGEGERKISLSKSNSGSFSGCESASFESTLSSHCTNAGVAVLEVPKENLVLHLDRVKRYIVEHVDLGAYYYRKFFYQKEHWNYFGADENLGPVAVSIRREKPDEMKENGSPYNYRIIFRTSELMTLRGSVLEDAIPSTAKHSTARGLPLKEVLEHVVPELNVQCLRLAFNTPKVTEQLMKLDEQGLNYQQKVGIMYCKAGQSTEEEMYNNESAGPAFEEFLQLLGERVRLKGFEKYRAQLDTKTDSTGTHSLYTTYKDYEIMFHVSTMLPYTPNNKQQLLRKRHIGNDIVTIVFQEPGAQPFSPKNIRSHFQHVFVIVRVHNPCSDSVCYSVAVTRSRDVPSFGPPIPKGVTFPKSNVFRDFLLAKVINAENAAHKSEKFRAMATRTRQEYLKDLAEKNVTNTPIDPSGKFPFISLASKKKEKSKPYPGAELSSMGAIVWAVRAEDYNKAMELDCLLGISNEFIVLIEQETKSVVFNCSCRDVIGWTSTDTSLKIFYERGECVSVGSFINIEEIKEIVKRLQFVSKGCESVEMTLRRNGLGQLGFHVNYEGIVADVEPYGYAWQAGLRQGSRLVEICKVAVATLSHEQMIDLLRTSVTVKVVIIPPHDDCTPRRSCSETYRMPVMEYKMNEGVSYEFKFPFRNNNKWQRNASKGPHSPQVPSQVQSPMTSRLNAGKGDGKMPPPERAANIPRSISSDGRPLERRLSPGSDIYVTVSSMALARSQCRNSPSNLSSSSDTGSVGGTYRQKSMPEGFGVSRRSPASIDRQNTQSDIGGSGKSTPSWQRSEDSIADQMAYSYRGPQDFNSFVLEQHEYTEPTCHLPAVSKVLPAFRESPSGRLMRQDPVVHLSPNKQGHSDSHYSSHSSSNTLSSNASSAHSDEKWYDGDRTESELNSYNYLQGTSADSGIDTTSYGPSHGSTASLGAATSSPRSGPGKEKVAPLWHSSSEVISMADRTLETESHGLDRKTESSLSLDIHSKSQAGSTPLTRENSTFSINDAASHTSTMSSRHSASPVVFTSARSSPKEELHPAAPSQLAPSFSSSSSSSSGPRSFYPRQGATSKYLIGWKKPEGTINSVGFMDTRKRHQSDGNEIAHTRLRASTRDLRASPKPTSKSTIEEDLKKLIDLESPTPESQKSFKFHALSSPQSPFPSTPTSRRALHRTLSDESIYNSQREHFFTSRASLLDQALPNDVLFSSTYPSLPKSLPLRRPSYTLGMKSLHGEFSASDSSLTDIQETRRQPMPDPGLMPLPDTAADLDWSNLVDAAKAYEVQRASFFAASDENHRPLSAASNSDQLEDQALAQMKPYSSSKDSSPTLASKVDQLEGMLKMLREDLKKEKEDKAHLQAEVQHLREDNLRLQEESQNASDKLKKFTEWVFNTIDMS

[7] = molecular target: T6, PTPN21 (human, UniProt Q16825 1-1174); test: Y2H; INT ID 41
T6 construct: also called cbe_4260642
T6 sequence: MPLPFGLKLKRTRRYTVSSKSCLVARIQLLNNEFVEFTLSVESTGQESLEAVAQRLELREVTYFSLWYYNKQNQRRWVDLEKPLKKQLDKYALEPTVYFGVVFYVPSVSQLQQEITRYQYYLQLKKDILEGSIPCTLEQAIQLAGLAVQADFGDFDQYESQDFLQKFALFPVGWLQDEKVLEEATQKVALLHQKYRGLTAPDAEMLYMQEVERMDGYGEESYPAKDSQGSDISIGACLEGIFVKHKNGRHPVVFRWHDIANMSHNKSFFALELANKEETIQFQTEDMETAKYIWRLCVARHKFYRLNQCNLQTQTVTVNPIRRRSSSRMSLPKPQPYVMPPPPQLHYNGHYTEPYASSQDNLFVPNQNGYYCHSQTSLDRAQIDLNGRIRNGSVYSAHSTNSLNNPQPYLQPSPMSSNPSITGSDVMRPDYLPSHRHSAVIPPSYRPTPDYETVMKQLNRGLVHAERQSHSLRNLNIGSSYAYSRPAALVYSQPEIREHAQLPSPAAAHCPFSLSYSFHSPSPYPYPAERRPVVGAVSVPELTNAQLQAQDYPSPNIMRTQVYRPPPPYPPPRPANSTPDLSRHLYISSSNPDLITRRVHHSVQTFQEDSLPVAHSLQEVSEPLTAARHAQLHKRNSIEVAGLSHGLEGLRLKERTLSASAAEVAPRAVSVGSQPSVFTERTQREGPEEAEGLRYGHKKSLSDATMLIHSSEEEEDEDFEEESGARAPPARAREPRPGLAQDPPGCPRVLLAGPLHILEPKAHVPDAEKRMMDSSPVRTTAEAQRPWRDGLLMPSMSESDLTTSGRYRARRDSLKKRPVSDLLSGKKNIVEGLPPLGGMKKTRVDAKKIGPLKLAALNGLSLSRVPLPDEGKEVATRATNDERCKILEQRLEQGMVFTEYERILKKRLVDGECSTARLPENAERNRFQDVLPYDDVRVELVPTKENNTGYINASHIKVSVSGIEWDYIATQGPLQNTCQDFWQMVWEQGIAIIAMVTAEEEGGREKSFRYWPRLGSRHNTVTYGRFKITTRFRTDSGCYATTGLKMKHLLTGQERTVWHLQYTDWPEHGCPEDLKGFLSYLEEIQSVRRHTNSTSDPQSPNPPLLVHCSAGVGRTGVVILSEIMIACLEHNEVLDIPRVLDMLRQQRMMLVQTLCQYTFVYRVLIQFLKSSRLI

[8] = molecular target: T7, ITGB4 (human, UniProt P16144 28-1822); test: Y2H; INT ID 49
T7 construct: also called cbe_4280774

[9] = molecular target: B3; test: Y2H; INT ID 141
[10] = molecular target: B4; test: Y2H; INT ID 38

B1: proteosome (prosome, macropain) subunit, beta type, 3 (other)
chain: SIMSYNGGAVMAMKGKNCVAIAADRRFGIQAQLVTTDFQKIFPMGDRLYIGLAGLATDVQTVAQRLKFRLNLYELKEGRQIKPYTLMSMVANLLYEKRFGPYYTEPVIAGLDPKTFKPFICSLDLIGCPMVTDDFVVSGTCAEQMYGMCESLWEPNMDPDHLFETISQAMLNAVDRDAVSGMGVIVHIIEKDKITTRTLKARMD
notes: also called PSMB3; cbe_3842044
B1: binds [1].

B2: binds [2].

B3: binds [3]; binds [4]; binds [5].

B4: binds [6]; binds [7]; binds [8].

B5: hypothetical protein FLJ20343 (other)
chain: MAQPHTTSVPYFARSPAPPPPSRSGAPPQPPATLRPSRRRTRPPRPADRRDAPADCAYLWRILTPRRGRARRSDVGARHRACGRRDVLLSRQGPANPEGARRVVGGQERVWPAVRRGRGGSMFRLLSWSLGRGFLRAAGRRCRGCSARLLPGLAGGPGPEVQVPPSRVAPHGRGPGLLPLLAALAWFSRPAAAEEEEQQGADGAAAEDGADEAEAEIIQLLKRAKLSIMKDEPEEAELILHDALRLAYQTDNKKAITYTYDLMANLAFIRGQLENAEQLFKATMSYLLGGGMKQEDNAIIEISLKLASIYAAQNRQEFAVAGYEFCISTLEEKIEREKELAEDIMSVEEKANTHLLLGMCLDACARYLLFSKQPSQAQRMYEKALQISEEIQGERHPQTIVLMSDLATTLDAQGRFDEAYIYMQRASDLARQINHPELHMVLSNLAAVLMHRERYTQAKEIYQEALKQAKLKKDEISVQHIREELAELSKKSRPLTNSVKL
notes: also called cbe_3880186
B5: binds [9].

B6: gbh_af252829 (other)
chain: MGKKQNRKTGNSKTQSTSPPPKERSSSPATDQSWMENDFDELREEGFRRSNYSELREDIQTKGKEVENFEKNLEECITRITNTEKCLKELMELKTKARELREECRSLRSQCDQLEERVSAMEDEMNEMKQEGKFREKRIKRNEQSLQEIWDYVKRPNLRLIGVPESDAENGTKLENTLQDIIQETFPNLARQANVQIQEIQRTPQRYSSRRATPRHIIVRFTKVEMKEKMLRAAREKGRVTLKGKPIRLTADLSAETLQARREWGPILNILKEKNFQPRISYPAKLSFISEGEIKYFTDKQMLTDFVTSRPALKELLKEALNMERNNRYQPLQNHAKM
notes: also called Homo sapiens chromosome 8 clone BAC 495D4 map 8q24; cbe_3454406
B6: binds [10].
